These are literature values, as cited in PMC11764136.

In this series the target is amyloid-β oligomers Aβ (Homo sapiens) (UniProt P05067).

The Kd is the free concentration of one partner at which half of the binding sites on the other are occupied at equilibrium, for simple one-to-one binding. Turning to PrPC (from UniProt P04156), the equilibrium dissociation constant (Kd) is 4 nM.
